Numbering of substitutions follows the chain as printed.
T1: P60 (huANGPTL7-Fibrinogen-his) (human, UniProt O43827 129-343)
T1 construct: also called human ANGPTL7 fibrinogen domain; not shown: C-terminal short linker and His tag
T1 sequence: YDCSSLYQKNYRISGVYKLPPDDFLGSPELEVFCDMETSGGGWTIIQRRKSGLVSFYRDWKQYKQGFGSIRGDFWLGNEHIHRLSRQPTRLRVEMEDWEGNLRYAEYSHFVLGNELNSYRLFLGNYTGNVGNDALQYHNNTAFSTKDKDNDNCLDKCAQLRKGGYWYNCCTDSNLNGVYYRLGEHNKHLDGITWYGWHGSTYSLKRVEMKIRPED

T2: P66 (rabbit ANGPTL7-his) (rabbit, UniProt G1T4P1 27-344)
T2 construct: mature; also called rabbit ANGPTL7 protein
T2 sequence: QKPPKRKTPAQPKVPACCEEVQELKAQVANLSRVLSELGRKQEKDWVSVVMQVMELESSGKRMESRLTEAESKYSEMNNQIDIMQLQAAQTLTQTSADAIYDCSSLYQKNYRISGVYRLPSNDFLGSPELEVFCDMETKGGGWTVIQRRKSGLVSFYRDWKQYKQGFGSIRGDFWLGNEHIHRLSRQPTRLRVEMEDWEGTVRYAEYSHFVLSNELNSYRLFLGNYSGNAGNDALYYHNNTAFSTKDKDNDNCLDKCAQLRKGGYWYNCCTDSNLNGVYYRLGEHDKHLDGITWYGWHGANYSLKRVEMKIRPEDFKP

T3: muANGPTL7-his (R&D Systems) (mouse, UniProt Q8R1Q3 22-337, limits assumed)
T3 construct: Bought protein; also called mouse ANGPTL7 protein
T3 sequence (looked up): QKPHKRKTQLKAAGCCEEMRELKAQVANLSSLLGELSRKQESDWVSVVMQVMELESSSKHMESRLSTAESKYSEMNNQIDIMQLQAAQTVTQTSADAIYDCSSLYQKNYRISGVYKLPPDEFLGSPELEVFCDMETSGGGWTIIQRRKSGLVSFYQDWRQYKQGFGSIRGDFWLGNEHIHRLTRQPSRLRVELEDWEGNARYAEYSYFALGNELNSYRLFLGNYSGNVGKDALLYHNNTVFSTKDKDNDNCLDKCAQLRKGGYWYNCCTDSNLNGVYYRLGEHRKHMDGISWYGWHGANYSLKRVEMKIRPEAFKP

T4: P62 (huANGPTL7-his) (human, UniProt O43827 27-346)
T4 construct: not shown: C-terminal short linker and His tag
T4 chain: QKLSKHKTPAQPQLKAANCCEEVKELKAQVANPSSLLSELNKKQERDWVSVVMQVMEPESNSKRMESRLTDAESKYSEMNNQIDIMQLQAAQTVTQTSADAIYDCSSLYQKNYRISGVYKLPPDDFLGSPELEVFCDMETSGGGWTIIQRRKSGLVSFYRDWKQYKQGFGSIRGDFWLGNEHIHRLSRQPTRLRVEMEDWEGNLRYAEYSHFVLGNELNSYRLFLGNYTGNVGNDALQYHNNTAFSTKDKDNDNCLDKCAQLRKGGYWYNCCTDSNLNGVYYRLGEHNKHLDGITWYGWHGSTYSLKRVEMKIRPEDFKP

T5: Pext-01 (huANGTPL7-FLAG multimer) (human, UniProt O43827 27-346)
T5 construct: also called PExt-1; human wild type ANGPTL7 multimer; not shown: FLAG tag
T5 sequence: T4 chain with P33L, P58L

B1: ATX-P-447 (antibody, human IgG1, kappa, N297A, V domains shown)
VH: EVQLVESGGGLVQPGGSLRLSCAASGFTISDYDMHWVRQTTGKGLEWVSGIDPDGDTYYPGSLKGRFTISRENAKNSLYLQMNSLRAGDTAVYYCTRGEDSSSSEDAFDIWGQGTMVTVSS
VL: not shown
notes: Full chains (VH + hIgG1-Agly-Fc)
B2: ATX-P-444 (antibody, human IgG1, kappa, N297A, V domains shown)
VH: B1 VH with I29L, D31V, T40V, T41S, L63V, A87V, T96L, D100E, S102N, A107G
VL: not shown
notes: as for B1
B3: ATX-P-446 (antibody, human IgG1, kappa, N297A, V domains shown)
VH: B1 VH with I29L, D31S, T40V, T41I, L63V, N73D, S101N
VL: not shown
notes: as for B1
B4: ATX-P-438 (antibody, human IgG1, kappa, N297A, V domains shown)
VH: QVQLVESGGGVVQPGRSLRLSCAASGFTFSSYGMHWVRQAPGKGLEWVAIISYDGNNKYYADSVKGRFTISRDNSKNTLYLQMNSLRDEDTAVYYCAKERGYSSSSGYYYYYMDVWGKGTTVTVSS
VL: EIVLTQSPGTLSLSPGERATLSCRASQSVSRSYLAWYQQKPGQAPRLLIIGASTRATGIPDRFSGSGSGTDFTLTISRLEPEDFAVYYCQQGQVIPPTFGQGTKVEIKR
notes: as for B1
B5: ATX-P-435 (antibody, human IgG1, kappa, N297A, V domains shown)
VH: QLQLQESGPGLVKPSETLSLTCTVSGGSISSSSSYWGWIRQPPGKGLEWIGSIYYSGSTYSNPSLKSRVTISVDTSKNQFSLKLSSVTAADTAVYYCARQYISGTEYFQYWGQGTLVTVSS
VL: EIVLTQSPATLSLSPGERATLSCRASQSVSNYLAWYQQKPGQAPRLLIYDASNRATGIPARFSGSGSGTDFTLTISSLEPEDFAVYYCQQRSNWPSFGQGTRLEIKR
notes: as for B1
B6: ATX-P-429 (antibody, human IgG1, kappa, N297A, V domains shown)
VH: QVQLVQSGAEVKKPGASVKVSCKASGYTFSSYGISWVRQAPGQGLEWMGWISAYNGNTNYAQNLRGRVAMTTDTSTTTAYMELRSLRSDDTAVYYCARVSLVWFGELPRGFDYWGQGTLVTVSS
VL: not shown
notes: as for B1
B7: ATX-P-433 (antibody, IgG1, V domains shown)
VH: EVQLVESGGGLVQPGRSLRLSCAASGFTFDDFAMHWVRQGPGKGLEWVSGIGWNSGSIGYADSVKGRFTISRDNAKNSLYLQMNSLRAEDTALYYCAKAPDYGDYYFDYWGQGTLVTVSS
VL: DIQMTQSPSSLSASVGDRVTITCRASQSISIYLNWYQQKPGTAPKLLIYAASSLQSGVPSRFSGSGSGTDFTLTISSLQPEDFAAYYCQQSYTTPLTFGGGTKVEIKR
notes: as for B1

target: T1, P60 (huANGPTL7-Fibrinogen-his); assay: BLI Octet HTX; IgG on AHC sensor; P60 at 200 nM
Procedure: (§1) ANGPTL7 Antibody Kinetics. Experiments were conducted to determine the reactivity and dissociation constants (KD) of anti-ANGPTL7 antibodies with the human fibrinogen domain of the ANGPTL7 protein. Binding experiments were performed on Octet HTX (ForteBio) in 1×PBS, pH 7.4, 0.1 mg/ml BSA, 0.05% Sodium Azide, and 0.02 Tween 20. Antibodies at a concentration of 50 nM were loaded on pre-hydrated AHC biosensors for 5 min. The loaded sensors were dipped into monovalent P60 (huANGPTL7-Fibrinogen-his) at a concentration of 200 nM for 5 min association, followed by 10 min dissociation. […] Responses (nm) at the end of association were also determined (Table 2).

Binder | binding result
B1 | no binding (tested: 200 nM)
B2 | no binding (tested: 200 nM)
B3 | no binding (tested: 200 nM)
B4 | no binding (tested: 200 nM)

target: T2, P66 (rabbit ANGPTL7-his); assay: BLI Octet HTX; IgG on AHC sensor; P66 at 200 nM
Procedure: (§2) Experiments were also conducted to determine the reactivity and dissociation constants (KA) of anti-ANGPTL7 antibodies with the rabbit ANGPTL7 protein. Binding experiments were performed on Octet HTX (ForteBio) in Rx PBS, pH 7.4, 0.1 mg/mi BSA, 0.05% Sodium Azide, and 0.02% Tween 20. Antibodies at a concentration of 50 nM were loaded on pre-hydrated AHC biosensors for 5 min. The loaded sensors were dipped into monovalent P66 (rabbit ANGPTL7-his) at a concentration of 200 nM for 5 min of association, followed by 10 min of dissociation. […] Responses (nm) at the end of association were also determined (Table 6).

Binder | binding result
B5 | no binding (tested: 200 nM)
B6 | no binding (tested: 200 nM)

target: T1, P60 (huANGPTL7-Fibrinogen-his); assay: BLI Octet HTX; IgG on AHC sensor; P60 at 200 nM; 1:1 fit
Procedure: as §1

Binder | Kd [nM] | Response [nm] | koff [s⁻¹] | kon [M⁻¹ s⁻¹]
B5 | 77 | 0.45 |  | 
B1 |  | 0.08 |  | 
B2 |  | 0.14 |  | 
B3 |  | 0.09 |  | 
B6 | 75.3 | 0.52 |  | 
B4 |  | 0.08 |  | 
B7 | 10.9 | 0.66 | 0.00243 | 223000

target: T2, P66 (rabbit ANGPTL7-his); assay: BLI Octet HTX; IgG on AHC sensor; P66 at 200 nM; 1:1 fit
Procedure: as §2

Binder | Response [nm] | Kd [nM] | koff [s⁻¹] | kon [M⁻¹ s⁻¹]
B5 | 0.01 |  |  | 
B1 | 0.65 | 3.33 |  | 
B3 | 0.41 | 3.19 |  | 
B6 | 0.04 |  |  | 
B4 | 0.42 | 7.16 |  | 
B7 | 0.9 | 7.02 | 0.000727 | 104000

target: T3, muANGPTL7-his (R&D Systems); assay: BLI Octet HTX; IgG on AHC sensor; muANGPTL7-his at 200 nM
Procedure: as §2, with “(KD)” for “(KA)”, “mouse” for “rabbit”, “1×PBS,” for “Rx PBS,”, “[…].” for “min.”, “muANGPTL7-his (R&D Systems)” for “P66 (rabbit ANGPTL7-his)”, “5).” for “6).”

Binder | binding result
B5 | no binding (tested: 200 nM)
B1 | no binding (tested: 200 nM)
B2 | no binding (tested: 200 nM)
B3 | no binding (tested: 200 nM)
B6 | no binding (tested: 200 nM)
B4 | no binding (tested: 200 nM)

Target: T4, P62 (huANGPTL7-his)
Assay: BLI Octet HTX; IgG on AHC sensor; P62 0.343-250 nM; global 1:1 fit
Procedure: Experiments were also conducted to determine the reactivity and dissociation constants (KD) of anti-ANGPTL7 antibodies with the human ANGPTL7-his protein. Binding experiments were performed on Octet HTX (ForteBio) in 1×PBS, pH 7.4, 0.1 mg/mi BSA, 0.05% Sodium Azide, and 0.02% Tween 20. To measure monovalent binding kinetics, antibodies at a concentration of 50 nM were loaded on pre-hydrated AHC biosensors for 5 min. The loaded sensors were dipped into monovalent P62 (huANGPTL7-his) at a range of concentration from 0.343-250 nM (a serial 3-fold dilution) for 5 min association, followed by 10 min dissociation.

Binder | binding result | Kd [nM] | koff [s⁻¹] | kon [M⁻¹ s⁻¹]
B1 | binds |  |  | 
B7 |  | 1.3 | 0.00056 | 431000

target: T3, muANGPTL7-his (R&D Systems); assay: BLI Octet HTX; IgG on AHC sensor; muANGPTL7-his at 200 nM; 1:1 fit
Procedure: as §2, with “(KD)” for “(KA)”, “mouse” for “rabbit”, “1×PBS,” for “Rx PBS,”, “[…].” for “min.”, “muANGPTL7-his (R&D Systems)” for “P66 (rabbit ANGPTL7-his)”, “5).” for “6).”

Binder | Response [nm]
B5 | 0.01
B1 | 0.12
B2 | 0.01
B3 | 0.05
B6 | 0
B4 | 0.01

target: T5, Pext-01 (huANGTPL7-FLAG multimer); assay: BLI Octet HTX; IgG on AHC sensor; Pext-01 at 100 nM; 1:1 fit; apparent KD
Procedure: Experiments were also conducted to determine the reactivity and dissociation constants (KD) of anti-ANGPTL7 antibodies with the human ANGPTL7 multimer protein. Binding experiments were performed on Octet HTX (ForteBio) in 1×PBS, pH 7.4, 0.1 mg/ml BSA, 0.05% Sodium Azide, and 0.02% Tween 20. Antibodies at a concentration of 50 nM were loaded on pre-hydrated AHC biosensors for 5 mi. The loaded sensors were dipped into Pext-01 (huANGTPL7-FLAG) at a concentration of 100 nM for 5 min of association, followed by 10 min of dissociation. […] Responses (nm) at the end of association were also determined (Table 7).

Binder | Response [nm] | Kd [nM]
B5 | 0.45 | 
B1 | 0.91 | 
B2 | 0.7 | 
B3 | 0.75 | 
B6 | 0.58 | 
B4 | 0.6 | 65.3
B7 | 0.72 | 

Reference: patent US20250296996A1 (BROADWING BIO, published 2025)
